Here are results for one protein from article PMC7913460, “Targeting hydroxycinnamoyl CoA: shikimate hydroxycinnamoyl transferase for lignin modification in Brachypodium distachyon” (Biotechnology for Biofuels, 2021).

Substrate in data set [1]: O=C(/C=C/c1ccc(O)c(O)c1)O[C@@H]1CC(C(=O)O)=C[C@@H](O)[C@H]1O
The data set can be described thus: HPLC product assay, reverse HCT reaction. The data set is classed as biochemical, Arabidopsis thaliana. Conditions: 500 µM CoA, 100 mM sodium phosphate pH 7.5, 500 µM DTT, kcat apparent, substrate tested 20 to 400 µM. From the text:
HPLC product assay, reverse HCT reaction on AtHCT1

Substrate in data set [2]: CC(C)(COP(=O)(O)OP(=O)(O)OC[C@H]1O[C@@H](n2cnc3c(N)ncnc32)[C@H](O)[C@@H]1OP(=O)(O)O)[C@@H](O)C(=O)NCCC(=O)NCCSC(=O)/C=C/c1ccc(O)cc1
The data set can be described thus: HPLC product assay, forward HCT reaction. In kind it is biochemical, Arabidopsis thaliana. Conditions: 500 µM shikimic acid, 100 mM sodium phosphate pH 7.5, 500 µM DTT, kcat apparent. From the text: HPLC product assay, forward HCT reaction on AtHCT1

B1: AtHCT1 (Arabidopsis thaliana) (protein)
chain: MKINIRDSTMVRPATETPITNLWNSNVDLVIPRFHTPSVYFYRPTGASNFFDPQVMKEALSKALVPFYPMAGRLKRDDDGRIEIDCNGAGVLFVVADTPSVIDDFGDFAPTLNLRQLIPEVDHSAGIHSFPLLVLQVTFFKCGGASLGVGMQHHAADGFSGLHFINTWSDMARGLDLTIPPFIDRTLLRARDPPQPAFHHVEYQPAPSMKIPLDPSKSGPENTTVSIFKLTRDQLVALKAKSKEDGNTVSYSSYEMLAGHVWRSVGKARGLPNDQETKLYIATDGRSRLRPQLPPGYFGNVIFTATPLAVAGDLLSKPTWYAAGQIHDFLVRMDDNYLRSALDYLEMQPDLSALVRGAHTYKCPNLGITSWVRLPIYDADFGWGRPIFMGPGGIPYEGLSFVLPSPTNDGSLSVAIALQSEHMKLFEKFLFEI
Take B1: in data set [1], the Michaelis-Menten constant (Km) is reported as 225.0 µM, the kcat was 17 s⁻¹ and the kcat/Km came out at 76000 M⁻¹ s⁻¹. For the same protein, in data set [2], the Km was 18.5 µM, the turnover number (kcat) amounted to 17.5 s⁻¹ and the catalytic efficiency (kcat/Km) was determined as 950000 M⁻¹ s⁻¹.
